Results published in PMC7069927, “Amyloid formation of bovine insulin is retarded in moderately acidic pH and by addition of short-chain alcohols” (European Biophysics Journal, 2020).
Read-outs that look alike come from different tables or passages of the source. Each block holds one compound with its values, some of them ahead of it.

Tests used:
bovine insulin = target: T1, bovine insulin (Bos taurus, UniProt P01317); experiment: Effect of short-chain alcohols on insulin fibrillation kinetics (ThT) at pH 4.0; details: ammonium acetate buffer pH 4.0, ThT, 60 °C; for retardation of insulin fibril formation (half-time) at the most effective alcohol:buffer mixing ratio: quiescent, triplicate, alcohol range 0-50% v/v; for alcohol concentration of maximal retarding effect: volume fraction
T1 construct: 51 amino acid residues, distributed over two polypeptide chains (A and B) that are interconnected by disulphide bridges; purchased Sigma-Aldrich I5500
T1 sequence (P01317 25-54 limits assumed): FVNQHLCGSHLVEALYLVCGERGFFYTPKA
T1 sequence (P01317 85-105 limits assumed): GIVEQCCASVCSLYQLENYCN
Protocol: (§1) Aggregation kinetics was monitored by ThT fluorescence in a Fluostar Omega or Fluostar Optima fluorescence plate reader (BMG Labtech, Ortenberg, Germany) at 60 °C without shaking. Samples were deposited in 100 μl triplicate in black half-area 96-well microtiter plates with transparent bottoms (Corning #3881), and the plates were sealed with plastic film (Bio-Rad Laboratories, Hercules, CA, U.S.) to avoid sample evaporation. ThT fluorescence emission was detected using bottom optics, a 440 ± 10 nm band pass excitation filter, and a 485 ± 12 nm band pass emission filter. The ThT concentration was 7.2 μM in all experiments.
To mimic conditions relevant to industrial purification of insulin, we investigated the effect of three short-chain alcohols (methanol, ethanol and isopropanol) on insulin aggregation in ammonium acetate buffer. We monitored ThT kinetics as function of increasing concentration (range: 0–50% v/v) of each alcohol (Fig. 5a–c). […] Methanol is apparently a weaker modulator (it retards fibril formation by ~ 2 times); higher concentrations (40%) are also needed to reach maximal effect.

[1] = Thioflavin-T kinetic assay of insulin amyloid formation; type: physicochemical, bovine; details: 64 μM insulin, 60 °C, quiescent; for half-time of amyloid formation: ThT 7.2 μM
Protocol: as §1
We set up thioflavin-T kinetic assays to monitor the aggregation of bovine insulin in microtitre plates at 60 °C and under quiescent conditions, initially at pH 2.2 to establish a reproducible method, then extending to pH 7.0 to reflect native conditions. The resulting kinetic curves (presented as normalized ThT fluorescence) are presented in Fig. 1a, b; each condition was analysed in triplicate and all curves are shown. The aggregation rate of bovine insulin increases with increase in monomer concentration at pH 2.2 (Fig. 1a), which is intuitively expected and also consistent with many previous studies (see for example Brange and Langkjoer [1993]; Nielsen et al. [2001]). […] The scaling component, i.e. the slope of the fitted straight line to the half-time data, for insulin aggregation kinetics at pH 2.2 is − 1.02, which is consistent with a nucleation-dependent aggregation mechanism (Meisl et al. [2016]). […] This is, from an amyloid formation point of view, an anomalous behaviour that can be explained by that insulin, in addition to existing as a monomer, populates higher-order oligomeric states that are resilient to amyloid formation; or interfere with fibril elongation (Ziaunys et al. [2018]). These higher-order states can be significant, or even predominant, at pH 7.0 despite that no stabilizing zinc was added (Ziaunys et al. [2018]; Waugh et al. [1953]; Goldman and Carpenter, [1974]).

[2] = ref Wintersteiner and Abramson [1933]; cited from earlier work
[3] = Fibril formation yield (centrifugation to sediment amyloid fibrils); type: physicochemical, bovine
Protocol: The fibril yields for the reactions shown in Fig. 1 were estimated by centrifugation experiments to sediment amyloid fibrils formed at a starting concentration of 58 μM insulin. […] We also used centrifugation to sediment insoluble insulin in 1 mg/ml solutions to investigate the solubility across a range of buffers with different pH values (Fig. 1d).

[4] = AFM imaging of the end point of the fibrillation reaction; type: physicochemical, bovine; details: aggregated in ammonium acetate pH 4.0 in presence of 30% (vol/vol) EtOH; on mica
Protocol: For atomic force microscopy, fibrillar insulin was deposited on freshly cleaved mica and left to settle for 5 min, after which the mica plates were rinsed with milli-Q water and dried under a gentle stream of nitrogen. AFM images were recorded on an NTEGRA Prima setup (NT-MDT, Moscow, Russian Federation) equipped with a gold-coated single crystal silicon cantilever (NSG-01, spring constant ~ 5.1 N/m, resonance frequency of ~ 150 kHz). The images were processed in the Gwyddion software package (Nečas and Klapetek [2012]) using planar subtraction, polynomial background subtraction and correction for linear aberrations. For fluorescence microscopy, 150 µl of insulin solution was placed on positively charged glass (Thermo Scientific, Waltham, MA, USA) and sealed with a 18 × 18 mm coverslip. A Zeiss AxioObserver.Z1 inverted fluorescence microscope (Carl Zeiss AG, Oberkochen, Germany) with a 100 × oil immersion objective (NA = 1.46) was used in combination with a Photometrics Evolve EMCCD camera (Photometrics, Tuscon, AZ, USA), 100 ms exposure time, to obtain the images of the samples.
This is probably due to ThT’s fluorescence being sensitive both to ThT binding affinity and to the quantum yield of each bound dye molecule (Lindberg et al.[2015], [2017]). […]

[5] = centrifuged 13,400 rpm 15 min, absorption 280 nm
Protocol: The solubility of insulin as function of pH was estimated by preparing insulin solutions with varying pH at a concentration of 1 mg/ml. The solutions were centrifuged at 13,400 rpm in an Eppendorf Minispin tabletop centrifuge (Eppendorf, Hamburg, Germany) for 15 min to pellet non-dissolved insulin. The solubility was estimated by measuring the insulin concentration in the supernatant by absorption (see above). The same strategy was used to determine fibril formation yields at different pH values, using pre-formed fibrils as starting material.

Compound: CO [Methanol, methanol]
retardation of insulin fibril formation (half-time) at the most effective alcohol:buffer mixing ratio (bovine insulin): ~ 2 times
alcohol concentration of maximal retarding effect (bovine insulin): 40%

retardation of insulin fibril formation (half-time) at the most effective alcohol:buffer mixing ratio (bovine insulin): three to four
alcohol concentration of maximal retarding effect (bovine insulin): 30–35%
Compound: CCO [Ethanol, ethanol]

Compound: Bovine insulin
half-time of amyloid formation ([1]; ammonium acetate buffer (200 mM) pH 4.0, printed 'ammonium phosphate', triplicate): 7.7 ± 0.8 h
half-time of amyloid formation ([1]; citrate-phosphate buffer pH 4.0, triplicate): 6.5 ± 0.1 h
slowing of amyloid formation kinetics as measured by half-time of fibril formation ([1]; pH 4.0 compared with pH 3.0 or pH 7.0, citrate-phosphate buffer, ThT, triplicate): ~ 50%
amyloid formation ([1]; pH 5.0-6.0, citrate-phosphate buffer, ThT, no reliable half-times within assayed time range): strongly inhibited
isoelectric point (pI) [2]: 5.3
fibril yield ([3]; pH 2.2, starting concentration 58 μM insulin, absorption of supernatant): 91 ± 8%
fibril yield ([3]; pH 4.0, absorption of supernatant): > 99.5%
fibril yield ([3]; pH 7.0, starting concentration 58 μM insulin, absorption of supernatant, n = 3): 90 ± 5%
size of oligomeric particles at end point of fibrillation (AFM) [4]: 2–3 nm
insulin solubility ([5]; across most of the assayed pH range except pH 5.0-6.0, 1 mg/ml (172 μM), pre-dissolved in 100 mM HCl): high
insulin solubility ([5]; pH 4.0, 1 mg/ml): solubility remains high
insulin solubility ([5]; pH 5.0-6.0, close to pI, 1 mg/ml): low solubility

retardation of insulin fibril formation (half-time) at the most effective alcohol:buffer mixing ratio (bovine insulin): three to four
alcohol concentration of maximal retarding effect (bovine insulin): 30–35%
Compound: CC(C)O [isopropanol]
